Assay results published in patent publication US20250152742A1, “COMPOSITIONS AND METHODS FOR NEUROLOGICAL DISEASES” (Trames Bio, Inc., priority 2022, published 2025).

Test system: engineered chimeric receptor SEQ ID NO: 33 and its mutants (human α7-nAChR ligand binding domain / human GlyRα1 ion pore domain) in Lenti-X 293T cells
Experiment: YFP fluorescence quenching anion reporter plate reader assay (percent quench, EC50)
Type: cell-based
Settings: for YFP fluorescence quenching using CNL001 (percent quench): receptor named in row; for YFP fluorescence quenching using Facinicline, 30 nM fac: ligand Facinicline 30 nM; for YFP fluorescence quenching using Facinicline, 300 nM fac: ligand Facinicline 300 nM; for YFP fluorescence quenching using Facinicline, 30 uM fac: ligand Facinicline 30 uM; for YFP fluorescence quenching using TC-6987, 1 uM tc6987: ligand TC-6987 1 uM; for YFP fluorescence quenching using TC-6987, 10 uM tc6987: ligand TC-6987 10 uM; for YFP fluorescence quenching using TC-6987, 500 uM tc6987: ligand TC-6987 500 uM
Outline: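 Percent quench compares mean YFP signal over the final 10 s with the 15 s baseline before ligand, added in iodide-containing extracellular solution (pH 7.2). Cells were LX293T carrying a YFP anion reporter, transiently transfected with the channel construct; plates were preincubated 30 min at 37 °C.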

[1] = 1 nM CNL001, first column so headed
[2] = 1 nM CNL001, second column so headed
[3] = 10 nM CNL001, first column so headed
[4] = 10 nM CNL001, second column so headed
[5] = 50 nM CNL001, first column so headed
[6] = 50 nM CNL001, second column so headed
[7] = 100 nM CNL001, first column so headed
[8] = 100 nM CNL001, second column so headed
[9] = 1 uM CNL001, first column so headed
[10] = 1 uM CNL001, second column so headed

B1: CODA534: engineered receptor: L131S, S172D in SEQ ID NO: 33 (protein)
chain: MRCSPGGVWLALAASLLHVSLQGEFQRKLYKELVKNYNPLERPVANDSQPLTVYFSLSLLQIMDVDEKNQVLTTNIWLQMSWTDHYLQWNVSEYPGVKTVRFPDGQIWKPDILLYNSADERFDATFHTNVSVNSSGHCQYLPPGIFKSSCPMDLKNFPMDVQTCKLKFGSWDYGGWSLDLQMQEADISGYIPNGEWDLVGIPGKRSERFYECCKEPYPDVTFTVTMRRRMGYYLIQMYIPSLLIVILSWISFWINMDAAPARVGLGITTVLTMTTQSSGSRASLPKVSYVKAIDIWMAVCLLFVFSALLEYAAVNFVSRQHKELLRFRRKRRHHKSPMLNLFQEDEAGEGRFNFSAYGMGPACLQAKDGISVKGANNSNTTNPPPAPSKSPEEMRKLFIQRAKKIDKISRIGFPMAFLIFNMFYWIIYKIVRREDVHNQ
modifications: synthetic sequence of chimeric LGIC
[1]
  YFP fluorescence quenching using CNL001 (percent quench): 23.438%
[2]
  YFP fluorescence quenching using CNL001 (percent quench): 28.59%
1 nM brd (TC-5619/Bradanicline)
  YFP fluorescence quenching using TC-5619/Bradanicline (percent quench): −1.13%
3 nM brd (TC-5619/Bradanicline)
  YFP fluorescence quenching using TC-5619/Bradanicline (percent quench): −3.83%
[3]
  YFP fluorescence quenching using CNL001 (percent quench): 56.882%
[4]
  YFP fluorescence quenching using CNL001 (percent quench): 56.777%
10 nM brd (TC-5619/Bradanicline)
  YFP fluorescence quenching using TC-5619/Bradanicline (percent quench): −3.78%
30 nM TC-6683
  YFP fluorescence quenching using TC-6683 (percent quench): −22.464%
[5]
  YFP fluorescence quenching using CNL001 (percent quench): 65.044%
[6]
  YFP fluorescence quenching using CNL001 (percent quench): 67.373%
50 nM abt (ABT-126)
  YFP fluorescence quenching using ABT-126 (percent quench): −11.96%
[7]
  YFP fluorescence quenching using CNL001 (percent quench): 68.666%
[8]
  YFP fluorescence quenching using CNL001 (percent quench): 70.357%
100 nM CNL002
  YFP fluorescence quenching (percent quench): 14.26%
100 nM abt (ABT-126)
  YFP fluorescence quenching using ABT-126 (percent quench): −10.72%
100 nM azd0328
  YFP fluorescence quenching using AZD-0328 (percent quench): −9.32%
100 nM brd (TC-5619/Bradanicline)
  YFP fluorescence quenching using TC-5619/Bradanicline (percent quench): −2.03%
300 nM TC-6683
  YFP fluorescence quenching using TC-6683 (percent quench): −23.976%
300 nM abt (ABT-126)
  YFP fluorescence quenching using ABT-126 (percent quench): 11.65%
300 nM azd0328
  YFP fluorescence quenching using AZD-0328 (percent quench): 4.94%
[9]
  YFP fluorescence quenching using CNL001 (percent quench): 73.019%
[10]
  YFP fluorescence quenching using CNL001 (percent quench): 73.527%
1 uM CNL002
  YFP fluorescence quenching (percent quench): 45.55%
1 uM abt (ABT-126)
  YFP fluorescence quenching using ABT-126 (percent quench): −3.06%
1 uM brd (TC-5619/Bradanicline)
  YFP fluorescence quenching using TC-5619/Bradanicline (percent quench): 1.68%
3 uM TC-6683
  YFP fluorescence quenching using TC-6683 (percent quench): −24.897%
10 uM ach (acetylcholine)
  YFP fluorescence quenching (percent quench): −11.3%
30 uM CNL002
  YFP fluorescence quenching (percent quench): 64.93%
30 uM TC-6683
  YFP fluorescence quenching using TC-6683 (percent quench): −20.474%
30 uM azd0328
  YFP fluorescence quenching using AZD-0328 (percent quench): 60.61%
100 uM TC-6683
  YFP fluorescence quenching using TC-6683 (percent quench): −22.253%
100 uM ach (acetylcholine)
  YFP fluorescence quenching (percent quench): −27.53%
1 mM ach (acetylcholine)
  YFP fluorescence quenching (percent quench): 2.84%
3 mM ach (acetylcholine)
  YFP fluorescence quenching (percent quench): 14.65%
  YFP fluorescence quenching using Facinicline, 30 nM fac: −23.44
  YFP fluorescence quenching using Facinicline, 300 nM fac: 2.75
  YFP fluorescence quenching using Facinicline, 30 uM fac: 61.44
  YFP fluorescence quenching using TC-6987, 1 uM tc6987: −20.99
  YFP fluorescence quenching using TC-6987, 10 uM tc6987: −27.62
  YFP fluorescence quenching using TC-6987, 500 uM tc6987: −24.22
Ligand Facinicline 10 uM
  YFP fluorescence quenching using Facinicline, 10 uM fac: 69.71

B2: CODA535: engineered receptor: L131T, S172D in SEQ ID NO: 33 (protein)
chain: MRCSPGGVWLALAASLLHVSLQGEFQRKLYKELVKNYNPLERPVANDSQPLTVYFSLSLLQIMDVDEKNQVLTTNIWLQMSWTDHYLQWNVSEYPGVKTVRFPDGQIWKPDILLYNSADERFDATFHTNVTVNSSGHCQYLPPGIFKSSCPMDLKNFPMDVQTCKLKFGSWDYGGWSLDLQMQEADISGYIPNGEWDLVGIPGKRSERFYECCKEPYPDVTFTVTMRRRMGYYLIQMYIPSLLIVILSWISFWINMDAAPARVGLGITTVLTMTTQSSGSRASLPKVSYVKAIDIWMAVCLLFVFSALLEYAAVNFVSRQHKELLRFRRKRRHHKSPMLNLFQEDEAGEGRFNFSAYGMGPACLQAKDGISVKGANNSNTTNPPPAPSKSPEEMRKLFIQRAKKIDKISRIGFPMAFLIFNMFYWIIYKIVRREDVHNQ
modifications: synthetic sequence of chimeric LGIC
[1]
  YFP fluorescence quenching using CNL001 (percent quench): 8.736%
[2]
  YFP fluorescence quenching using CNL001 (percent quench): 24.572%
[3]
  YFP fluorescence quenching using CNL001 (percent quench): 60.552%
[4]
  YFP fluorescence quenching using CNL001 (percent quench): 63.09%
30 nM TC-6683
  YFP fluorescence quenching using TC-6683 (percent quench): −29.362%
[5]
  YFP fluorescence quenching using CNL001 (percent quench): 73.242%
[6]
  YFP fluorescence quenching using CNL001 (percent quench): 73.889%
50 nM abt (ABT-126)
  YFP fluorescence quenching using ABT-126 (percent quench): −11.09%
[7]
  YFP fluorescence quenching using CNL001 (percent quench): 76.147%
[8]
  YFP fluorescence quenching using CNL001 (percent quench): 76.21%
100 nM CNL002
  YFP fluorescence quenching (percent quench): 1.23%
100 nM abt (ABT-126)
  YFP fluorescence quenching using ABT-126 (percent quench): −10.37%
100 nM azd0328
  YFP fluorescence quenching using AZD-0328 (percent quench): −7.02%
300 nM TC-6683
  YFP fluorescence quenching using TC-6683 (percent quench): −28.954%
300 nM abt (ABT-126)
  YFP fluorescence quenching using ABT-126 (percent quench): −4%
300 nM azd0328
  YFP fluorescence quenching using AZD-0328 (percent quench): −0.48%
[9]
  YFP fluorescence quenching using CNL001 (percent quench): 78.988%
[10]
  YFP fluorescence quenching using CNL001 (percent quench): 78.818%
1 uM CNL002
  YFP fluorescence quenching (percent quench): 35.77%
1 uM abt (ABT-126)
  YFP fluorescence quenching using ABT-126 (percent quench): 4.05%
3 uM TC-6683
  YFP fluorescence quenching using TC-6683 (percent quench): −23.708%
10 uM ach (acetylcholine)
  YFP fluorescence quenching (percent quench): −12.24%
30 uM CNL002
  YFP fluorescence quenching (percent quench): 68.29%
30 uM TC-6683
  YFP fluorescence quenching using TC-6683 (percent quench): −23.431%
30 uM azd0328
  YFP fluorescence quenching using AZD-0328 (percent quench): 70.16%
100 uM TC-6683
  YFP fluorescence quenching using TC-6683 (percent quench): −18.324%
100 uM ach (acetylcholine)
  YFP fluorescence quenching (percent quench): −26.23%
1 mM ach (acetylcholine)
  YFP fluorescence quenching (percent quench): −1.16%
3 mM ach (acetylcholine)
  YFP fluorescence quenching (percent quench): 2.97%
  YFP fluorescence quenching using Facinicline, 30 nM fac: −21.36
  YFP fluorescence quenching using Facinicline, 300 nM fac: 4.17
  YFP fluorescence quenching using Facinicline, 30 uM fac: 65.94
  YFP fluorescence quenching using TC-6987, 1 uM tc6987: −21.8
  YFP fluorescence quenching using TC-6987, 10 uM tc6987: −27.08
  YFP fluorescence quenching using TC-6987, 500 uM tc6987: −21.56
